Test results reported in patent publication US20140087995A1 (published 2014).
Numbered stars: 1 amine (or outer) side, 2 acyl side, 3 side chain; on linkers, the order of the positions; unused ones are H or OH. Bridge positions count the residues as written; N and C are the ends. Side chains are listed from the residue outwards. Ends that are not written are not given here. * marks the point of attachment. C20 diacid = O=C(O)CCCCCCCCCCCCCCCCCCC(=O)*; γGlu = O=C(O)[C@H](CCC(=O)[*:2])N[*:1]

T1: rat amylin receptor (rat calcitonin receptor + rat RAMP 3) (rat, UniProt P32214 25-516; Q9JJ73 23-147)
T1 construct: whole, on cells; Membranes of transiently transfected BHK tk'ts 13 cells (Assay VI); also called rAmylin-R; rat amylin 3(a) receptor
T1 sequence (looked up) 1: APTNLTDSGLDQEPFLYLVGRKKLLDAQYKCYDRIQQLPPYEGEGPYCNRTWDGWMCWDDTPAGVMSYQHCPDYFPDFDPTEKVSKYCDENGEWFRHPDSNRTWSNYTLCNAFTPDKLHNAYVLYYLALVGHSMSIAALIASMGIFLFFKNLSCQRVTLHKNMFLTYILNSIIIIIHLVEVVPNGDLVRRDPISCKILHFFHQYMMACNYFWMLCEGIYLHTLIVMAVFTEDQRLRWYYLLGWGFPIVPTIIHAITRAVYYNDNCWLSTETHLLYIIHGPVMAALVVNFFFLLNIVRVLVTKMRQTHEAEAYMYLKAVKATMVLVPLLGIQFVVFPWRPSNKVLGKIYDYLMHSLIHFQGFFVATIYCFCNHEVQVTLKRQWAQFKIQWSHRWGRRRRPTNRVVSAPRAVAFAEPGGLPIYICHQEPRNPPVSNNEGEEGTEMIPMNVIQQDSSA
T1 sequence (looked up) 2: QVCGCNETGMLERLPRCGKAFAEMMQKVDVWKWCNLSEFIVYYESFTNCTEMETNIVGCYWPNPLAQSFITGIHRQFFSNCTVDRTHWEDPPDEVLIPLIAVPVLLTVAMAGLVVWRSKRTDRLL

T2: human calcitonin receptor (human, UniProt P30988 25-474)
T2 construct: whole, on cells; Membranes of a stably transfected BHK cell line (Assay VII); also called hCTR; hCT
T2 sequence (looked up): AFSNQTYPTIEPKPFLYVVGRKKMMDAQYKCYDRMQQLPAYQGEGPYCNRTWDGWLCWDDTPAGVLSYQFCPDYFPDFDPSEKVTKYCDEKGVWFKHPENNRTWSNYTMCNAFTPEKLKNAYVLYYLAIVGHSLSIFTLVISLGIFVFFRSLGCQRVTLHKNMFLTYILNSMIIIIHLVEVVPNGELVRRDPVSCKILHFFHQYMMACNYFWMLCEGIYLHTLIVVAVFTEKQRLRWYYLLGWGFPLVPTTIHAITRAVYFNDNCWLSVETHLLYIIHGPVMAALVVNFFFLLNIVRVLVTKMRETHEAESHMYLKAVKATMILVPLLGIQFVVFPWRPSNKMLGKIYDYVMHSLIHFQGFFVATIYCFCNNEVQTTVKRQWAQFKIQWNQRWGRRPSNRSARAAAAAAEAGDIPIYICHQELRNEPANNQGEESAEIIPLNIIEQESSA

T3: rat calcitonin receptor (rat, UniProt P32214 25-516)
T3 construct: whole, on cells; Membranes of transiently transfected BHK tk'ts 13 cells (Assay VIII); also called rCTR
T3 sequence (looked up): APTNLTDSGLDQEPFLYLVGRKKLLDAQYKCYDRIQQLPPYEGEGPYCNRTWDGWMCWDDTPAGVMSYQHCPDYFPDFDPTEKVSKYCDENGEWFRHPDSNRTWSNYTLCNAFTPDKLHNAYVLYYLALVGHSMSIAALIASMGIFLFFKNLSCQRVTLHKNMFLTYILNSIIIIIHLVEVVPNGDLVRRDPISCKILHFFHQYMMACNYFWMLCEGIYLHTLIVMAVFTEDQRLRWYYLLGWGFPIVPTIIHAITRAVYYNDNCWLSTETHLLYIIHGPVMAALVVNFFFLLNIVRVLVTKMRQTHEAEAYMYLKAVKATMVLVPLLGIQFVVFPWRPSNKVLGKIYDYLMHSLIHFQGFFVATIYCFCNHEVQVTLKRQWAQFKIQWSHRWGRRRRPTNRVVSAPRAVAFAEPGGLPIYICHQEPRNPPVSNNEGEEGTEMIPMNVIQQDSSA


How the values were obtained:
[1] = target: T1, rat amylin receptor (rat calcitonin …); assay: SPA competition with 125I-rat amylin, membranes of BHK cells with rat calcitonin receptor + rat RAMP3 (Assay VI)
[2] = target: T2, human calcitonin receptor; assay: ratio IC50 human calcitonin receptor / IC50 human amylin receptor (reference)
In short: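 Scintillation proximity competition binding on cell membranes at 35 ng/μL with SPA beads, in 50 mM Hepes pH 7.4, 1 mM CaCl2, 5 mM MgCl₂, 0.1% OA, 0.02% Tween20. Incubated 120 min at 25° C with shaking. IC₅₀ from one-site competition fit.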

[3] = target: T3, rat calcitonin receptor; assay: SPA competition with 125I-calcitonin, membranes of BHK cells with rat calcitonin receptor (Assay VIII)
[4] = target: T3, rat calcitonin receptor; assay: ratio IC50 rat calcitonin receptor / IC50 rat amylin receptor (reference)

IC50 [1] [nM]	Ratio hCT/hAmylin binding [2]	IC50 [3] [nM]	Ratio rCT/rAmylin binding [4]	Binder
3.14	29.1	498	159	K([γGlu-γGlu-C20 diacid])CNTATCATQRLAEFLRHSSPNFGAIPSSTNVGHETY-NH2 (disulfide 2-7; N-terminus assumed; SMILES CC[C@H](C)[C@H](NC(=O)[C@H](C)NC(=O)CNC(=O)[C@H](Cc1ccccc1)NC(=O)[C@H](CC(N)=O)NC(=O)[C@@H]1CCCN1C(=O)[C@H](CO)NC(=O)[C@H](CO)NC(=O)[C@H](Cc1c[nH]cn1)NC(=O)[C@H](CCCNC(=N)N)NC(=O)[C@H](CC(C)C)NC(=O)[C@H](Cc1ccccc1)NC(=O)[C@H](CCC(=O)O)NC(=O)[C@H](C)NC(=O)[C@H](CC(C)C)NC(=O)[C@H](CCCNC(=N)N)NC(=O)[C@H](CCC(N)=O)NC(=O)[C@@H](NC(=O)[C@H](C)NC(=O)[C@@H]1CSSC[C@H](NC(=O)[C@@H](N)CCCCNC(=O)CC[C@H](NC(=O)CC[C@H](NC(=O)CCCCCCCCCCCCCCCCCCC(=O)O)C(=O)O)C(=O)O)C(=O)N[C@@H](CC(N)=O)C(=O)N[C@@H]([C@@H](C)O)C(=O)N[C@@H](C)C(=O)N[C@@H]([C@@H](C)O)C(=O)N1)[C@@H](C)O)C(=O)N1CCC[C@H]1C(=O)N[C@@H](CO)C(=O)N[C@@H](CO)C(=O)N[C@H](C(=O)N[C@@H](CC(N)=O)C(=O)N[C@H](C(=O)NCC(=O)N[C@@H](Cc1c[nH]cn1)C(=O)N[C@@H](CCC(=O)O)C(=O)N[C@H](C(=O)N[C@@H](Cc1ccc(O)cc1)C(N)=O)[C@@H](C)O)C(C)C)[C@@H](C)O)
0.182	17.6	16.1	88.5	K([γGlu-γGlu-C20 diacid])CNTATCATQRLAEFLRHSSPNFGAIPSSTNVGPETY-NH2 (disulfide 2-7; N-terminus assumed; SMILES CC[C@H](C)[C@H](NC(=O)[C@H](C)NC(=O)CNC(=O)[C@H](Cc1ccccc1)NC(=O)[C@H](CC(N)=O)NC(=O)[C@@H]1CCCN1C(=O)[C@H](CO)NC(=O)[C@H](CO)NC(=O)[C@H](Cc1c[nH]cn1)NC(=O)[C@H](CCCNC(=N)N)NC(=O)[C@H](CC(C)C)NC(=O)[C@H](Cc1ccccc1)NC(=O)[C@H](CCC(=O)O)NC(=O)[C@H](C)NC(=O)[C@H](CC(C)C)NC(=O)[C@H](CCCNC(=N)N)NC(=O)[C@H](CCC(N)=O)NC(=O)[C@@H](NC(=O)[C@H](C)NC(=O)[C@@H]1CSSC[C@H](NC(=O)[C@@H](N)CCCCNC(=O)CC[C@H](NC(=O)CC[C@H](NC(=O)CCCCCCCCCCCCCCCCCCC(=O)O)C(=O)O)C(=O)O)C(=O)N[C@@H](CC(N)=O)C(=O)N[C@@H]([C@@H](C)O)C(=O)N[C@@H](C)C(=O)N[C@@H]([C@@H](C)O)C(=O)N1)[C@@H](C)O)C(=O)N1CCC[C@H]1C(=O)N[C@@H](CO)C(=O)N[C@@H](CO)C(=O)N[C@H](C(=O)N[C@@H](CC(N)=O)C(=O)N[C@H](C(=O)NCC(=O)N1CCC[C@H]1C(=O)N[C@@H](CCC(=O)O)C(=O)N[C@H](C(=O)N[C@@H](Cc1ccc(O)cc1)C(N)=O)[C@@H](C)O)C(C)C)[C@@H](C)O)
0.668	145	104	156	K([γGlu-γGlu-C20 diacid])CNTATCATQRLAHFLRHSSPNFGAIPSSTNVGSNTY-NH2 (disulfide 2-7; N-terminus assumed; SMILES CC[C@H](C)[C@H](NC(=O)[C@H](C)NC(=O)CNC(=O)[C@H](Cc1ccccc1)NC(=O)[C@H](CC(N)=O)NC(=O)[C@@H]1CCCN1C(=O)[C@H](CO)NC(=O)[C@H](CO)NC(=O)[C@H](Cc1c[nH]cn1)NC(=O)[C@H](CCCNC(=N)N)NC(=O)[C@H](CC(C)C)NC(=O)[C@H](Cc1ccccc1)NC(=O)[C@H](Cc1c[nH]cn1)NC(=O)[C@H](C)NC(=O)[C@H](CC(C)C)NC(=O)[C@H](CCCNC(=N)N)NC(=O)[C@H](CCC(N)=O)NC(=O)[C@@H](NC(=O)[C@H](C)NC(=O)[C@@H]1CSSC[C@H](NC(=O)[C@@H](N)CCCCNC(=O)CC[C@H](NC(=O)CC[C@H](NC(=O)CCCCCCCCCCCCCCCCCCC(=O)O)C(=O)O)C(=O)O)C(=O)N[C@@H](CC(N)=O)C(=O)N[C@@H]([C@@H](C)O)C(=O)N[C@@H](C)C(=O)N[C@@H]([C@@H](C)O)C(=O)N1)[C@@H](C)O)C(=O)N1CCC[C@H]1C(=O)N[C@@H](CO)C(=O)N[C@@H](CO)C(=O)N[C@H](C(=O)N[C@@H](CC(N)=O)C(=O)N[C@H](C(=O)NCC(=O)N[C@@H](CO)C(=O)N[C@@H](CC(N)=O)C(=O)N[C@H](C(=O)N[C@@H](Cc1ccc(O)cc1)C(N)=O)[C@@H](C)O)C(C)C)[C@@H](C)O, also called compound 92)
0.339	53.6	38.3	113	K([γGlu-γGlu-C20 diacid])CNTATCATQRLAEFLRHSSPNFGAIPSSTNVGPRTY-NH2 (disulfide 2-7; N-terminus assumed; SMILES CC[C@H](C)[C@H](NC(=O)[C@H](C)NC(=O)CNC(=O)[C@H](Cc1ccccc1)NC(=O)[C@H](CC(N)=O)NC(=O)[C@@H]1CCCN1C(=O)[C@H](CO)NC(=O)[C@H](CO)NC(=O)[C@H](Cc1c[nH]cn1)NC(=O)[C@H](CCCNC(=N)N)NC(=O)[C@H](CC(C)C)NC(=O)[C@H](Cc1ccccc1)NC(=O)[C@H](CCC(=O)O)NC(=O)[C@H](C)NC(=O)[C@H](CC(C)C)NC(=O)[C@H](CCCNC(=N)N)NC(=O)[C@H](CCC(N)=O)NC(=O)[C@@H](NC(=O)[C@H](C)NC(=O)[C@@H]1CSSC[C@H](NC(=O)[C@@H](N)CCCCNC(=O)CC[C@H](NC(=O)CC[C@H](NC(=O)CCCCCCCCCCCCCCCCCCC(=O)O)C(=O)O)C(=O)O)C(=O)N[C@@H](CC(N)=O)C(=O)N[C@@H]([C@@H](C)O)C(=O)N[C@@H](C)C(=O)N[C@@H]([C@@H](C)O)C(=O)N1)[C@@H](C)O)C(=O)N1CCC[C@H]1C(=O)N[C@@H](CO)C(=O)N[C@@H](CO)C(=O)N[C@H](C(=O)N[C@@H](CC(N)=O)C(=O)N[C@H](C(=O)NCC(=O)N1CCC[C@H]1C(=O)N[C@@H](CCCNC(=N)N)C(=O)N[C@H](C(=O)N[C@@H](Cc1ccc(O)cc1)C(N)=O)[C@@H](C)O)C(C)C)[C@@H](C)O, also called compound 110)
0.449	22.6	33.5	74.7	K([γGlu-γGlu-C20 diacid])CNTATCATQRLAEFLRHSSPNFGAILSSTPVGPETY-NH2 (disulfide 2-7 (inferred))
